Data set [1] addresses T1, Pif1p (nuclear isoform) (Saccharomyces cerevisiae, UniProt P07271 40-859).
T1 sequence: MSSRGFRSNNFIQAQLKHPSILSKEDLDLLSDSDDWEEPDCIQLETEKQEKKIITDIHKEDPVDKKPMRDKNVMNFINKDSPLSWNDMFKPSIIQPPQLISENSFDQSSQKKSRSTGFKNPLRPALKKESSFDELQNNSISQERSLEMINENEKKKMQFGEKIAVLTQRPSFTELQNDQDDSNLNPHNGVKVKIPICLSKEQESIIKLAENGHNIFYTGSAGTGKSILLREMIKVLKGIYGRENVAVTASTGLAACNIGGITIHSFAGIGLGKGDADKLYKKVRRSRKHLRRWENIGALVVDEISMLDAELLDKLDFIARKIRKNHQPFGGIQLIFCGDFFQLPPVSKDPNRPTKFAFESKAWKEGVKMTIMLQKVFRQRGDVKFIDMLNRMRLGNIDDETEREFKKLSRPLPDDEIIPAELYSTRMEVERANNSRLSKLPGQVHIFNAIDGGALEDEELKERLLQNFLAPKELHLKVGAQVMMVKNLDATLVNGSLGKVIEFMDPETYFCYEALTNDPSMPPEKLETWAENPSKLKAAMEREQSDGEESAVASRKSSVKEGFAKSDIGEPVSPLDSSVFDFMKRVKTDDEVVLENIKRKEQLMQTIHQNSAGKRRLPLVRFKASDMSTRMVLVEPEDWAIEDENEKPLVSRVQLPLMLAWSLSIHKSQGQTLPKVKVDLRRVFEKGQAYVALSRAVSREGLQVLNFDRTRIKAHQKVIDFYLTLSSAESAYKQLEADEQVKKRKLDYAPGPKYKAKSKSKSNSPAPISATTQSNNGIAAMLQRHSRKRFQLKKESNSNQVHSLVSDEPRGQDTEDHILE
Nature of the data set: EMSA.

In data set [2] the target is T1, Pif1p (nuclear isoform). Nature of the data set: EMSA. The source holds these as a separate data set.

Usually Kd stands for the free concentration of one partner at which half of the binding sites on the other are occupied at equilibrium, for simple one-to-one binding.

Read-outs that look alike come from different tables or passages of the source.

B1: D20 (dsDNA)
DNA 1: CGCCATGGTGATCCGAGTGC
DNA 2: CACTGGCCGTCTTACGGTCGGCACTCGGATCACCATGGCG
Take B1: the Kd with Pif1p (nuclear isoform) [1] stood at 100 nM.

B2: fD20 (dsDNA)
DNA 1: CGCCATGGTGATCCGAGTGCAAAAAAAAAA
DNA 2: CACTGGCCGTCTTACGGTCGGCACTCGGATCACCATGGCG
With B2, the Kd was 320 nM with Pif1p (nuclear isoform) [2] and 130 nM in the data set with Pif1p (nuclear isoform) [1].

B3: R20 (DNA:RNA)
RNA: CGCCAUGGUGAUCCGAGUGC
DNA: CACTGGCCGTCTTACGGTCGGCACTCGGATCACCATGGCG
modifications: top strand RNA, bottom strand DNA
Regarding B3, the affinity with Pif1p (nuclear isoform) [1], expressed as Kd, was 17 nM.

B4: fR20 (DNA:RNA)
RNA: CGCCAUGGUGAUCCGAGUGCAAAAAAAAAA
DNA: CACTGGCCGTCTTACGGTCGGCACTCGGATCACCATGGCG
modifications: top strand RNA, bottom strand DNA
On to B4, for which, in the data set with Pif1p (nuclear isoform) [1], the equilibrium dissociation constant (Kd) is 52 nM.

Values taken from publication PMC2034482.
